Results reported in publication PMC9126151.

Biological target: non-translating 70S ribosome (E. coli) (UniProt P0AG44)
Test: FRET or BRET

Substance | Kd [µM]
methionine aminopeptidase MAP(H79A), TMR-labelled (from UniProt P0AE18 1-264) (enzyme) | 5.4
peptide deformylase PDF(E133A), TMR-labelled (enzyme) | 7.3
